Data on one protein can be found in article PMC6390181, “Ovalbumin Epitope [sequence] Self-Assembles into a Supramolecular Hydrogel” (Scientific Reports, 2019).

This data set concerns the molecule itself. As to the kind of experiment: hydrogel formation (visual inspection, rheology); purified peptide dissolved in Millipore water at 0.5% or 1% (w/v); room temperature; gel seen at once (1%) or after overnight incubation (0.5%); rheology after 24 h; the analogue was followed for 72 h.

B1: OVA257-264 octapeptide SIINFEKL (peptide)
peptide: SIINFEKL
notes: ovalbumin (OVA), residues 257-264; Assembles into nanofibrils and a hydrogel; the number of peptides in an assembly is not defined; source: synthetic peptide (Fmoc-SPPS, purified by RP-HPLC)
In the case of B1, the binding result is listed as “binds”.
